According to US20240158511A1 (GENERAL HOSPITAL, published 2024):

B1: humanized N55D-substituted mAb107 (humanized IgG4κ mAb107) (antibody, V domains shown)
VH: QVQLVQSGAEVKKPGASVKVSCKPSGFNIKDIYMQWVRQAPGQRLEWIGRIDPADDKTKYDPKFQGRATITADTSASTAYLELSSLRSEDTAVYYCASEGHYGYDGYAMDYWGQGTTVTVSS
VL: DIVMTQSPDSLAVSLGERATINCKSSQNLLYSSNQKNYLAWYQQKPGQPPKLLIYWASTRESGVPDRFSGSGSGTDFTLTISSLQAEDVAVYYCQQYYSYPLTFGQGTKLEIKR
notes: The VH was joined to a human IgG4 constant region and the VL to a human kappa constant region; also called humAb107; humanized mAb107
B2: Humanized mutagenized mAb107 IgG4k heavy chain V5 (antibody, V domains shown)
VH: B1 VH
VL: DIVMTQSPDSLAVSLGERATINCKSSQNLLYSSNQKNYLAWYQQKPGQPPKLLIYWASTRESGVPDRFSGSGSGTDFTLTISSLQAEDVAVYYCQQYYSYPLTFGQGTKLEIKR
notes: The residue limits were counted on the printed translation; The heavy chain carries the N-to-D substitution in CDR2 and S228P in the IgG4 hinge; also called Humanized mutagenized anti-CD11b; humanized IgG4κ mAb107 containing Pro 228

How the values were obtained:
A-domain of CD11b [1] = molecular target: T1, A-domain of CD11b (UniProt P11215 139-337); assay: BLI (Octet), A-domain of CD11b as ligand
T1 construct: domain: A-domain; Used as the ligand in BLI (Octet); also called CD11b A-domain; CD11bA domain
T1 sequence (P11215 139-337 limits assumed): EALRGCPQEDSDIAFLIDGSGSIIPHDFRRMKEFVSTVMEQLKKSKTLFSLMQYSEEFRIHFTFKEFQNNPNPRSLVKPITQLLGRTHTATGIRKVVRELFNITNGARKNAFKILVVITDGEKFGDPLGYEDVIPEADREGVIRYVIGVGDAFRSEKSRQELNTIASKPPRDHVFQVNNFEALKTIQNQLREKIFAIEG
Protocol: Production, purification, and evaluation: Expi293 cells (Thermo Fisher) were used to produce recombinant antibodies. Cells were grown on orbital shaker (125 rpm) in Expi293 Expression Medium (Thermo Fisher) at 37° C. in 5% CO2. Expi293 cells were transiently transfected with 1:1 heavy chain and light chain plasmids, using manufacturer's protocol. Culture supernatant was harvested after one week, and IgG was purified using Protein G agarose beads (Thermo Scientific). We routinely obtained 1-3 mg of purified IgG per 100 ml of cell culture. The protein sizes of the heavy and light chains and purity of the IgG were confirmed on SDSPAGE. Affinity of the humanized mAb107 vs. mouse mAb107 was measured using the A-domain of CD11b as ligand by Bio-layer interferometry (BLI) using the Octet Assay system.

A-domain of CD11b [2] = molecular target: T1, A-domain of CD11b; assay: assay not given; presumably BLI on the CD11b A-domain as in Example 1; lower end of the printed range 5-9 nM

| Binder | Kd (A-domain of CD11b [1]) | Kd (A-domain of CD11b [2]) |
| --- | --- | --- |
| B1 | 5 to 9 nM |  |
| B2 |  | 5 to 9 nM |
